Measurements taken from the DeepSol protein solubility set.

experiment: soluble on expression in E. coli; label from the status in PepcDB or PDB records

**Q.** For “GEVASVPLTNYLDSQYFGKIYLGTPPQEFTVLFDTGSSDFWVPSIYCKSNACKNHQRFDPRKSSTFQNLGKPLSIHYGTGSMQGILGYDTVTVSNIVDIQQTVGLSTQEPGDVFTYAEFDGILGMAYPSLASEYSIPVFDNMMNRHLVAQDLFSVYMDRNGQESMLTLGAIDPSYYTGSLHWVPVTVQQYWQFTVDSVTISGVVVACEGGCQAILDTGTSKLVGPSSDILNIQQAIGATQNQYGEFDIDCDNLSYMPTVVFEINGKMYPLTPSAYTSQDQGFCTSGFQSENHSQKWILGDVFIREYYSVFDRANNLVGLAKAI”, which “soluble on expression in E. coli” value is on record?
**A.** soluble

**Q.** For “GFKDYGHDYHPAPKTENIKGLGDLKPGIPKTPKQNGGGKRKRWTGDKGRKIYEWDSQHGELEGYRASDGQHLGSFDPKTGNQLKGPDPKRNIKKYL”, which “soluble on expression in E. coli” value is on record?
**A.** soluble

**Q.** With “GGDKQEAPITKNSIAGGQSESANSTMPGIVVPIISAETSHAAGNADPDVPDTAPLAIDTALESAWQPAKGDTLVLNFAQPYVISRVIVDSPTKDMTLEVRAGDTVVGTGTVTKSRTKITVTPAPAVTSLSIRVVGVPDGVSPEINDVKLVAKI” as the sequence, how does the “soluble on expression in E. coli” value read?
**A.** not soluble

**Q.** With “GGEGTDAIQALIQAYFTAWNTNAPERFAEIFWPDGSWVNVVGMHWRGRDQIVFAHTAFLKTIFKDCKQELVTIEARTIAPGSALAVVTLIQDAYVTPDGRQMPRAHDRLTLLAVEREGVWRFIHGHNTIVNPDAANNDPVLRMKPA” as the sequence, how does the “soluble on expression in E. coli” value read?
**A.** soluble

**Q.** Which “soluble on expression in E. coli” value does the source give for “GGSVIVIDSKAAWDAQLAKGKEEHKPIVVDFTATWCGPCKMIAPLFETLSNDYAGKVIFLKVDVDAVAAVAEAAGITAMPTFHVYKDGVKADDLVGASQDKLKALVAKHAAA” here?
**A.** soluble

**Q.** For “GHHHHHHHHHHSSGHIEGRHMPAAPSPAPAGAVAGGPAAGVPAAASGAAEAAMPLPAALPGALAGSHAPRLPLAAGGRLARTRAVREFFDYCLTAQGELTPAALDALVRREIAAQLDGSPAQAEALGVWRRYRAYFDALAQLPGDGAVLGDKLDPAAMQLALDQRAALADRTLGEWAEPFFGDEQRRQRHDLERIRIANDTTLSPEQKAARLAALDAQLTPDERAQQAALHAQQDAVTKIADLQKAGATPDQMRAQIAQTLGPEAAARAAQMQQDDEAWQTRYQAYAAERDRIAAQGLAPQDRDARIAQLRQQTFTAPGEAIRAASLDRGAG”, which “soluble on expression in E. coli” value is on record?
**A.** soluble

**Q.** Which “soluble on expression in E. coli” value does the source give for “GHLYLVPTPIGNLDDMTFRAVKTLTAVDLIAAEDTRNTQKLLNHFEITTKQISFHEHNTQERIPQLIAKLKQGMQIAQVSDAGMPSISDPGHELVNACIDAHIPVVPLPGA” here?
**A.** not soluble

**Q.** For “GHMASMDISGGNTSRQPQKKSNQNIQVYVRVRPLNSRERCIRSAEVVDVVGPREVVTRHTLDSKLTKKFTFDRSFGPESKQCDVYSVVVSPLIEEVLNGYNCTVFAYGQTGTGKTHTMVGNETAELKSSWEDDSDIGIIPRALSHLFDELRMMEVEYTMRISYLELYNEELCDLLSTDDTTKIRIFDDSTKKGSVIIQGLEEIPVHSKDDVYKLLEKGKERRKTATTLMNAQSSRSHTVFSIVVHIRENGIEGEDMLKIGKLNLVDLAGSENVSKAGNEKGIRVRETVNINQSLLTLGRVITALVDRAPHVPYRESKLTRLLQESLGGRTKTSIIATISPGHKDIEETLSTLEYAHRAKNIQNKPEVNQKLTK”, which “soluble on expression in E. coli” value is on record?
**A.** soluble

**Q.** Which “soluble on expression in E. coli” value does the source give for “GHMQEKPPKELVNEWSLKIRKEMRVVDRQIRDIQREEEKVKRSVKDAAKKGQKDVCIVLAKEMIRSRKAVSKLYASKAHMNSVLMGMKNQLAVLRVAGSLQKSTEVMKAMQSLVKIPEIQATMRELSKEMMKAGIIEEMLEDTFESMDDQEEMEEEAEMEIDRILFEITAGALGKAPSKVTDALPEPEPPGAMAASEDEEEEEEALEAMQSRLATLRS” here?
**A.** soluble

**Q.** Which “soluble on expression in E. coli” value does the source give for “GHMVDLEQEFALGGRVLAFHGPLMYEAKILKIWDPSSKMYTSIPNDKPGGSSQATKEIKPQKLGEDESIPEEIINGKSFFIHYQGWKSSWDEWVGYDRIRAYNEENIAMKKRLANEAGSTGSAPATGGVKKPHRYR” here?
**A.** soluble

**Q.** For “GHQLPIWKQDEKSLTENDYYSFYKNTFKAYDDPLAYVHFNVEGQISFNSILYIPGSLPWELSKNMFDEESRGIRLYVKRVFINDKFSESIPRWLTFLRGIVDSENLPLNVGREILQKSKMLSIINKRIVLKSISMMKGLKETGGDKWTKFLNTFGKYLKIGVVEDKENQEEIASLVEFYSINSGDKKTDLDSYIENMKEDQKCIYYISGENKKTAQNSPSLEKLKALNYDVLFSLEPIDEFCLSSLTVNKYKGYEVLDVNKAD”, which “soluble on expression in E. coli” value is on record?
**A.** soluble

**Q.** With “GHRIARKVTDVWEITGPSSEDAIEVARWNPFTKEHEHFMEKSVAIAEIGKLVGLTKDEVLAEIERRKLVLLWMAKSGIRRYREVAPIIFKYYYSPDDVYERAAKELKTELI” as the sequence, how does the “soluble on expression in E. coli” value read?
**A.** not soluble

**Q.** For “GIDPFTMLSSGDLTSASWELVVRVDHANGEQQTEITLRVSGDLHIGGVMLKLVEQMNIAQDWSDYALWWEQKRCWLLKTHWTLDKCGVQADANLLFTPQHKM”, which “soluble on expression in E. coli” value is on record?
**A.** soluble

**Q.** Which “soluble on expression in E. coli” value does the source give for “GIFPAEIEDLAQKQVAVDLTQPSRFLLKVLAGANIGAEFHLDSGKTYIVGSDPQVADIVLSDMSISRQHAKIIIGNDNSVLIEDLGSKNGVIVEGRKIEHQSTLSANQVVALGTTLFLLVDYAAPS” here?
**A.** soluble

**Q.** With “GKDFKYNIGFNLSDVKNKVIDLRGYKSSTTELTAKIEGQPLNAIFGFETLGICDNQELYDKYAPMMQKYNPKWGMGDIIIKDRTGEGVINDEDRTVIGNSIPRFTFGLNLGFEYKGFDFSCFFQGVGKADGYVTMEAIQPMGINGARKEHYKESFNPQDPKPGAYFPRILSSDYNYAYMSHWVQDASYIRLKNLQIGYSFKIKGLNQLRVYASGENLFTATKYRTWDPETPVGARGFYPNVAVYSMGVNLNF” as the sequence, how does the “soluble on expression in E. coli” value read?
**A.** not soluble

**Q.** With “GKNMDTSAEPADVQANVSDSSRIEQEAIGMIEDFYEAYAASFMSTGKEALALGDSIKQKFLTKELIEKVDRLIEATDADPIIRAQDLGENDMKTLSVKHLNDNWYEVNYTSAKGSQYERAVSIPVRVVNVDGQYLIDDITPEN” as the sequence, how does the “soluble on expression in E. coli” value read?
**A.** soluble

**Q.** With “GKQDRQMIVVDPRKTDTAKLADVHLQVEPHKDYELVSALRAAAKGFNIEAEQVAGVPTETIYEAVDICKNAQFGSLFFAMGVTMSRGKHRIIDNAIQFVIDMNAYTKFVLTPMRGHYNVNGFNQVSTWVTGYPYGVDFSRGYPRYNPGETASNDVLQRGDTDMMINVASDAGAHFPQKAVQHMAKIPLVCIDPHETPSSVISNIVLPPAITGLEVSGTAYRMDGVPIELRKVIKAPEGMLSDAEIMK” as the sequence, how does the “soluble on expression in E. coli” value read?
**A.** not soluble

**Q.** For “GKVFERCELARTLKRLGMDGYRGISLANWMCLAKWESGYNTRATNYNAGDRSTDYGIFQINSRYWCNDGKTPGAVNACHLSCSALLQDNIADAVACAKRVVRDPQGIRAWVAWRNRCQNRDVRQYVQGCGV”, which “soluble on expression in E. coli” value is on record?
**A.** soluble

**Q.** Which “soluble on expression in E. coli” value does the source give for “GLDNELSLVDGQDRTLTVQQWDTFLNGVFPLDRNRLTREWFHSGRAKYIVAGPGADEFEGTLELGYQIGFPWSLGVGINFSYTTPNILIDDGDITRPPFGLNSVITPNLFPGVSISADLGNGPGIQEVATFSVDVSGAEGGVAVSNAHGTVTGAAGGVLLRPFARLIASTGDSVTTYGEPWNMN” here?
**A.** soluble

**Q.** For “GMDAGRGAEHDEAVTSDDSASVEVPRRATPADAATVAQMLHDFNTEFGAPTPGTDELASRLSHLLAGEDVVVLLAGEPPTGLAVLSFRPNVWYPGPVAILDELYVRPGRRGHRLGSALLAASCGLVRSRGGALLEINVDGEDTDARRFYEARGFTNTEPNGTEPMLYYYREL”, which “soluble on expression in E. coli” value is on record?
**A.** soluble

**Q.** Which “soluble on expression in E. coli” value does the source give for “GMDIQNMPREQLGVCAEGNLHSVYLMFNANDNVESQLRPCIANVAQYIYELTDQYSDSAFNGFVAIGANYWDSLYPESRPEMLKPFPAMQEGNREAPAIEYDLFVHLRCDRYDILHLVANEISQMFEDLVELVEEERGFRFMDSRDLTGFVDGTENPKGRHRQEVALVGSEDPEFKGGSYIHVQKYAHNLSKWHRLPLKKQEDIIGRTKQDNIEYESEDKPLTSHIKRVNLKDENGKSIEILRQSMPYGSLKEQGLMFISTCRTPDHFEKMLHSMVFGDGAGNHDHLMHFTSALTGSSFFAPSLDFLMQFDN” here?
**A.** soluble

**Q.** Which “soluble on expression in E. coli” value does the source give for “GMDTPANKPCIICVAITGSVPTKADNPAVPITVSEQVESTQEAFEAGAAIAHCHVRNDDGTPSSDPDRFARLTEGLHTHCPGMIVQFSTGGRSGAGQARGGMLPLKPDMASLSVGSNNFPSRVYENPPDLVDWLAAQMRSYRVTPEIEAFDLSHILRAIDMHGRGLLYGKLYVQFVMGVKNAMPADREVFDFYVRMMRTRAPQAEWCAAGIGANQLTVNEWAIAAGGHTRTGLEDNIRLDRQTLAPSNAALVRRSVELCDKYQRPVASWQQAREILGLPAAARN” here?
**A.** soluble

**Q.** Which “soluble on expression in E. coli” value does the source give for “GMEPSAKHLQLQTLLSERHAYLMEGNREAMHQLLSSDFSFIDGQGRQFDAETYLDHYVDPDQIQWSNQISESMVVEVFETTALVQEIVEDHFSYGRSMYIGRFRSVSLYHWANEGWKWHFHQLTPLDPS” here?
**A.** soluble

**Q.** For “GMIRVMATGVFDILHLGHIHYLKESKKLGDELVVVVARDSTARNNGKIPIFDENSRLALISELKVVDRAILGHEGDMMKTVIEVKPDIITLGYDQKFDEAELQSKINKLGITVKIVRISKYDGQLNSSSSVRKKIMELIGERY”, which “soluble on expression in E. coli” value is on record?
**A.** soluble

**Q.** For “GMKGISHRIAIPLILEVGNNKIYNIGQIIKKGNFKRVSLYFGEGIYELFGETIEKSIKSSNIEIEAVETVKNIDFDEIGTNAFKIPAEVDALIGIGGGKAIDAVKYMAFLRKLPFISVPTSTSNDGFSSPVASLLINGKRTSVPAKTPDGIVVDIDVIKGSPEKFIYSGIGDLVSNITALYDWKFEEENHKSIIDDFAVMISKKSVNSFVRTDFKSIKDEVFLKELVDSLTMNGIAMEIAGNSSPASGAEHLISHALDKFLPNPQLHGIQVGVATYIMSKVHKHREERIKKILSDTGFFNYVKGLNMKKSDFKRAISEAHLIKPARYTYLHVEKNCETAKEIVDTDEILRNILV”, which “soluble on expression in E. coli” value is on record?
**A.** soluble

**Q.** Which “soluble on expression in E. coli” value does the source give for “GMKLLLTRPEGKNAAMASALDALAIPYLVEPLLSVEAAAVTQAQLDELSRADILIFISTSAVSFATPWLKDQWPKATYYAVGDATADALALQGITAERSPADSQATEGLLTLPSLEQVSGKQIVIVRGKGGREAMADGLRLRGANVSYLEVYQRACPPLDAPASVSRWQSFGIDTIVVTSGEVLENLINLVPKDSFAWLRDCHIIVPSARVETQARKKGLRRVTNAGAANQAAVLDALGM” here?
**A.** soluble

**Q.** With “GMKLQTTIQHEPKDGSGFDRGLREFFEYRDTGVNEATGGMFGAHVIRAIPGKEAKPTWHTHTVGFQLFYVLRGWVEFEYEDIGAVMLEAGGSAFQPPGVRHRELRHSDDLEVLEIVSPAGFATSVVDLEEARKP” as the sequence, how does the “soluble on expression in E. coli” value read?
**A.** soluble

**Q.** With “GMKNIKIMRLVTGEDIIGNISESQGLITIKKAFVIIPMQATPGKPVQLVLSPWQPYTDDKEIVIDDSKVITITSPKDDIIKSYESHTSEIITPSGLITET” as the sequence, how does the “soluble on expression in E. coli” value read?
**A.** soluble

**Q.** Which “soluble on expression in E. coli” value does the source give for “GMKSLHRPDLYSWSTFNPARNIDFNGFAWIRPEGNILIDPVALSNHDWKHLESLGGVVWIVLTNSDHVRSAKEIADQTYTKIAGPVAEKENFPIYCDRWLSDGDELVPGLKVMELQGSKTPGELALLLEETTLITGDLVRAYRAGGLEILPDEKLMNKQKVVASVRRLAALEKVEAVLVGDGWSVFRDGRDRLKELVATLA” here?
**A.** soluble

**Q.** For “GMKTIIRQPQLYRFLKYCNESNLDKTVLDCGAGGDLPPLSIFVEDGYKTYGIEISDLQLKKAENFSRENNFKLNISKGDIRKLPFKDESMSFVYSYGTIFHMRKNDVKEAIDEIKRVLKPGGLACINFLTTKDERYNKGEKIGEGEFLQLERGEKVIHSYVSLEEADKYFKDMKVLFKEDRVVERINDGLKIKQGYVDYIAEKFSKSIL”, which “soluble on expression in E. coli” value is on record?
**A.** soluble
